Laboratory results from paper PMC5809530, “Resculpting the binding pocket of APC superfamily LeuT-fold amino acid transporters” (Cellular and Molecular Life Sciences: CMLS, 2017).

What was measured:
[1] = substrate: N[C@@H](CO)C(=O)O; assay: cells, lysate or membranes; conditions: transport Km, Na+-free, pH 5.5, about 22 °C, labelled compound, 0.01-20 mM serine
[2] = substrate: O=C(O)[C@@H]1CCCN1; assay: cells, lysate or membranes; conditions: transport Km, Na+-free, pH 5.5, about 22 °C, labelled compound, a second Km was measured by TEVC at -60 mV

Protein | Km [1] [mM] | Km [2] [mM]
CG1139 (Drosophila melanogaster) (protein) MNDDIKTVTVYPTTLELTTPTKSANGSNDDYDPHQHRELKNPTTNFQTFAHFLKASVGTGVLAMPSAFAHAGYVNGTLLTLIIGSLALYCLHILIKCMYILCKRQRVPYVSFSQAMNLGLKQGPPWLRCLAPIAVPFVDGFLAFYHFGICCVYVVFIAESIKQLVDEYLVVWDVRIHMCIIIVPLLLIYSIKNLKLLAPFSSAANLLLLVGFGIILYYIFEELPPLSERDPFVAAGKLPTFFGTVLFALEAVGVILAIEENMATPKSFVGPCGILNSGMSIVLGLYVLLGFFGYWKYGNESEGSITLNIPQSEIPAQVVKVFFAITTWISYALQGYVTAHILWDKYLAKRFKETRQTFYELIFRAIIVLLTFGCAVAIPDLSVFLSLVGSFCLSILGLIFPVLLQICVQYTEGYGPFRIKLIINLLLLCFGIFGGVVGTYVSILDIIAVYK | 1.31 ± 0.12 | 1.03 ± 0.18
PAT2 (SLC36A2) (Rattus norvegicus; F159I) (protein) MSVTKSAGSPQVAATVKLDLVSFPESAKKVQSQDPNPVNGSSSESSEKTKGITGFQTLVHLVKGNMGTGILGLPLAVKNAGILMGPLSLLVMGLIACHCMHILVRCAQRFCHRLNKPFMDYGDTVMHGLASSPNTWLQSHAHWGRHAVSFFLIVTQLGICCVYIVFLADNLKQVVEAVNSTTISCHKNETVVLTPTIDSRLYMLAFLPVLGLLVFIRNLRVLTIFSLLANVSMLVSLVIIGQYIIQGIPDPSQLPLVASWKTYPLFFGTAIFSFESIGVVLPLENKMKDARRFPTILSLGMSIITTLYIAIGALGYLRFGDDIKASITLNLPNCWLYQSVKLLYVVGILCTHALQFYVPAEIIIPLAVSQVSKRWALPVDLSIRLALVCVTCMLAILIPRLDLVLSLVGSVSSSALALIIPPLLEVTTYYGEGMSPLTITKDALISILGFMGFVVGTYQALDELIRSGNSLPLSNSTMFIQ | 0.823 ± 0.202 | 
